Series [1] concerns the target T1, MCT1 on the surface of human PBMCs (Homo sapiens, UniProt P53985).
T1 construct: endogenous in cells; host or cells: human PBMCs (unstimulated and stimulated)
T1 sequence (P53985 1-500): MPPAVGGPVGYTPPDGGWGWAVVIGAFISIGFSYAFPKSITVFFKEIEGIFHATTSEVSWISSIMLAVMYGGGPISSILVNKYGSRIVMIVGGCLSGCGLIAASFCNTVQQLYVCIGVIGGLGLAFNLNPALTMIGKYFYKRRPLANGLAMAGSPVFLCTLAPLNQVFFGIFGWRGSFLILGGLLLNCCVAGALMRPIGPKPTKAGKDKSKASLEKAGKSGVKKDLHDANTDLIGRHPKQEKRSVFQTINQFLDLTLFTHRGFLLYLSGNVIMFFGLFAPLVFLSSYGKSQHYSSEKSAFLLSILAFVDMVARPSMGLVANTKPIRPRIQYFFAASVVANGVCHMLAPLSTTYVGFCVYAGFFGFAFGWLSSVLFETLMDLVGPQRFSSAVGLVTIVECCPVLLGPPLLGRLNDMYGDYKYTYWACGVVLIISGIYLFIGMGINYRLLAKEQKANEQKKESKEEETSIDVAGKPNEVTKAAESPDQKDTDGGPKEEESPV
In words: flow cytometry binding to PBMCs, human. The text has this: (§1) FIG. 12A-D show the cross-reactivity of MCT1 Ab1 as assessed via flow cytometry measurements of binding to MCT1 on the surface of different species' PBMCs.
(§2) Binding affinity and MCT1 cross-reactivity. […] MCT1 Ab1 is also highly cross-reactive with cynomolgus (cyno) and rabbit MCT1, but not with rodent MCT1 (FIG. 12A-D).
Background: A flow cytometer gives signals particle by particle.

The test system of a further series is rabbit MCT1. In words: flow cytometry binding to PBMCs, rabbit.
Text: as §1, §2

In a further series the test system is cynomolgus MCT1. The experiment in a line: flow cytometry binding to PBMCs, cynomolgus.
Text: as §1, §2

Another series in a line: PK in cynos. The class given is in vivo, cynomolgus monkey. The following applies: preliminary PK data.
In a further series the target is T2, rat MCT1 (Rattus norvegicus, UniProt P53987).
T2 construct: endogenous in cells; host or cells: rat PBMCs
T2 sequence (P53987 1-494): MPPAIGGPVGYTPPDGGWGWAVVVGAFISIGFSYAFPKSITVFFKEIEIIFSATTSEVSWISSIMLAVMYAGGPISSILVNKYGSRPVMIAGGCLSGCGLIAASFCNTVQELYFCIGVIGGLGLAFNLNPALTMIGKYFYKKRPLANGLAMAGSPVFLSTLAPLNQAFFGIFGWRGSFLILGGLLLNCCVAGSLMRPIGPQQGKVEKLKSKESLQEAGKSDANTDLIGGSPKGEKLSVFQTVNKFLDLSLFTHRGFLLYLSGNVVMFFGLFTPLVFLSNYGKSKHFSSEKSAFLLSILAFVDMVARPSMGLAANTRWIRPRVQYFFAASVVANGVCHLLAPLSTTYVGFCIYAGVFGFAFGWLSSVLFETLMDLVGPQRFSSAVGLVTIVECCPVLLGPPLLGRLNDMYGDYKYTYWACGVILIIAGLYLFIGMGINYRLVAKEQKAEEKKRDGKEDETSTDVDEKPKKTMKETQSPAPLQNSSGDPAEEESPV
The experiment in a line: flow cytometry binding to PBMCs, rat.
Text: as §1, §2

B1: MCT1 Ab1: rat anti-human MCT1 monoclonal antibody (rat/human chimera); VH/VL SEQ ID NO: 2/3 (antibody, V domains shown)
VH: QVQLKATGPGLVQPTQTLSITCTVSGFSLTNYHLQWVRQTPGKGLEWMGFIRSSGNTEYNSEFKSRLSISRDTSKNQVFLKMNSLKTDDTGVYYCARNSWYHGTYYSPGYYVMDAWGQGASVTVSS
VL: NIHLTQSPSLLSASVGDRVTLSCKGSQNINNYLAWFQQKFGETPKLLIYNRHNLQTGIPSRFSGSGSGTDYTLTINSLQPEDVATYFCYQYSDGYTFGAGTKLELK
modifications: MCT1 Ab1 (INX310) VH; MCT1 Ab1 (INX310) VL
For the molecule B1, the “binding to MCT1 on PBMCs” value in series [1] was “binds to MCT1 on the surface of human PBMCs”; in the series on rabbit MCT1 it was “binds to rabbit MCT1”; in the series with cynomolgus MCT1, “binds to cynomolgus MCT1”; in the series with rat MCT1, “does not bind to rat MCT1”. In “PK in cynos”, the “dose rate at which the RBC sink is saturated” value is not below 5 mpk.
